Molecular target: full-length human Hsp90α (human), P07900
Assay: BLI

Row | Binder | Kd [nM]
1 | PRPRPRPRPRPRPRPRPRPRPRPRPRPRPRPRPRPRPRPR (modifications not checked) [PR20 dipeptide repeats] | 9.08
2 | GRGRGRGRGRGRGRGRGRGRGRGRGRGRGRGRGRGRGRGR (modifications not checked) [GR20 dipeptide repeats] | 8.97
